Experimental data taken from patent US20020081638.
“And” between values parts separate entries of the source, which are not always exact repeats. Equal entries are not always repeated.

Assays:
[1] = molecular target: free histones (mixture of H1, H3, H2B, H2A and H4; Boehringer Mannheim)
[2] = molecular target: N-terminus of human CENP-A peptide
[3] = molecular target: N-terminus of rat macro-H2A peptide
[4] = molecular target: mutant H3 (K9L) N-terminal peptide
[5] = molecular target: wild-type N-terminus of human histone H3 peptide (aa 1-20)

B1: GST-CLR4(127-490), S. pombe (protein)
chain: KQSTALTTNDTSIILDDSLHTNSKKLGKTRNEVKEESQKRELVSNSIKEATSPKTSSILTKPRNPSKLDSYTHLSFYEKRELFRKKLREIEGPEVTLVNEVDDEPCPSLDFQFISQYRLTQGVIPPDPNFQSGCNCSSLGGCDLNNPSRCECLDDLDEPTHFAYDAQGRVRADTGAVIYECNSFCSCSMECPNRVVQRGRTLPLEIFKTKEKGWGVRSLRFAPAGTFITCYLGEVITSAEAAKRDKNYDDDGITYLFDLDMFDDASEYTVDAQNYGDVSRFFNHSCSPNIAIYSAVRNHGFRTIYDLAFFAIKDIQPLEELTFDYAGAKDFSPVQSQKSQQNRISKLRRQCKCGSANCRGWLFG
- in vitro HMTase assay with free histones, activity against recombinant SUV39H1 product [1]: 3 fold and 5 fold

B2: GST-Suv39h1(82-412), murine (protein)
chain: CIRVLKQFHKDLERELVRRHRRSKPPRHLDPNLANYLVQKAKQRRALQRWEQELNAKRSHLGRITVENEVDLDGPPRSFVYINEYRVGEGITLNQVAVGCECQDCLLAPTGGCCPGASLHKFAYNDQGQVRLKAGQPIYECNSRCCCGYDCPNRVVQKGIRYDLCIFRTNDGRGWGVRTLEKIRKNSFVMEYVGEIITSEEAERRGQIYDRQGATYLFDLDYVEDVYTVDAAYYGNISHFVNHSCDPNLQVYNVFIDNLDERLPRIAFFATRTIWAGEELTFDYNMQVDPVDMESTRMDSNFGLAGLPGSPKKRVRIECKCGTTACRKYLF
- in vitro methylation of peptides, SDS-PAGE and fluorography [2]: no signals were detected with the CENP-A or macroH2A peptides, or with insulin
- in vitro methylation of peptides, SDS-PAGE and fluorography [3]: no signals were detected with the CENP-A or macroH2A peptides, or with insulin
- in vitro HMTase assay, fluorography of 14C-methyl label [1]: A purified GST-product comprising aa 82-412 maintained HMTase activity (although at a reduced level as compared to transfected SUV39H1)
- in vitro methylation of individual histones, fluorography (histone H1): A weak signal is present if H1 was used as the sole substrate
- in vitro methylation of individual histones, fluorography (histone H2A): no signals are detected with H2A, H2B or H4
- in vitro methylation of individual histones, fluorography (histone H2B): no signals are detected with H2A, H2B or H4
- in vitro methylation of individual histones, fluorography (histone H3): H3 is specifically methylated by GST-Suv39h1(82-412)
- in vitro methylation of individual histones, fluorography (histone H4): no signals are detected with H2A, H2B or H4
- in vitro methylation of peptides, SDS-PAGE and fluorography (insulin (Sigma)): no signals were detected with the CENP-A or macroH2A peptides, or with insulin
- in vitro methylation of peptides, SDS-PAGE and fluorography [4]: the mutated H3 (K9L) peptide was not a substrate
- 3H-incorporation of individual amino acids by microsequencing of the in vitro methylated peptide [5]: The results confirmed selective transfer of methyl-label to lysine 9
- in vitro methylation of peptides, SDS-PAGE and fluorography [5]: These in vitro assays revealed selective methylation of the wild-type H3 peptide

B3: (myc)3-SUV39H1 (aa 3-412), triple myc-tagged full-length human SUV39H1 (protein)
chain: ENLKGCSVCCKSSWNQLQDLCRLAKLSCPALGISKRNLYDFEVEYLCDYKKIREQEYYLVKWRGYPDSESTWEPRQNLKCVRILKQFHKDLERELLRRHHRSKTPRHLDPSLANYLVQKAKQRRALRRWEQELNAKRSHLGRITVENEVDLDGPPRAFVYINEYRVGEGITLNQVAVGCECQDCLWAPTGGCCPGASLHKFAYNDQGQVRLRAGLPIYECNSRCRCGYDCPNRVVQKGIRYDLCIFRTDDGRGWGVRTLEKIRKNSFVMEYVGEIITSEEAERRGQIYDRQGATYLFDLDYVEDVYTVDAAYYGNISHFVNHSCDPNLQVYNVFIDNLDERLPRIAFFATRTIRAGEELTFDYNMQVDPVDMESTRMDSNFGLAGLPGSPKKRVRIECKCGTESCRKYLF
- in vitro HMTase assay, fluorography of 14C-methyl label (histone H3): indicating selective transfer of the methyl-label to H3

B4: (myc)3-Nchromo (aa 3-118), C-terminally truncated human SUV39H1 (protein)
chain: ENLKGCSVCCKSSWNQLQDLCRLAKLSCPALGISKRNLYDFEVEYLCDYKKIREQEYYLVKWRGYPDSESTWEPRQNLKCVRILKQFHKDLERELLRRHHRSKTPRHLDPSLANYL
- in vitro HMTase assay, fluorography of 14C-methyl label [1]: no signals were detected with extracts from a HeLa cell line that expresses only the N-terminal third of SUV39H1 (aa 3-118)

B5: GST-Suv39h1(7-221), murine (protein)
chain: GCSVCCKSSWNQLQDLCRLAKLSCPALGVSKKNLYDFEVEYLCDYKKIREQEYYLVKWRGYPDSENTWEPRQNLKCIRVLKQFHKDLERELVRRHRRSKPPRHLDPNLANYLVQKAKQRRALQRWEQELNAKRSHLGRITVENEVDLDGPPRSFVYINEYRVGEGITLNQVAVGCECQDCLLAPTGGCCPGASLHKFAYNDQGQVRLKAGQPIYE
- in vitro HMTase assay, fluorography of 14C-methyl label [1]: a purified GST-product comprising aa 7-221 proved negative, even at higher protein concentrations
